B1: Hairpin Ribozyme (parent)
chain: GUCCUCUUUCACGUGCGCGUGAAAGAGAGAAGUGAACCAGAGAAACACACGUUGUGGUAUAUUACCUGGUA

The data set covers variants of B1. The data set is described as follows: self-cleavage, relative activity (ratio to wild type); higher = more cleavage; co-transcriptional.
For A41C U53A, the self-cleavage was 0.786. For G42A G54U the value was 0.136. For G42A G54C the value was 0.168. For G42A G54A the value was 0.153; for A41U G42A, 0.321; for A39U G54A, 0.122. With G42C G56U, the self-cleavage is 0.117.

For G40U G69A, the self-cleavage is 0.143. For G42A U70A the value was 0.0455; for G40A U58C, 0.558; for G42C A47C, 0.149. For G40U U67A the value was 0.159; for G42C U60A, 0.133; for G42C U60G, 0.211. With A39U U55C the figure was 0.183. A39U U55G: the self-cleavage stood at 0.108. For A39U A64U the value was 0.16; for A39U A64C, 0.177.

For A41U C50A, the self-cleavage was found to be 0.673. For G42A A43G the value was 0.0927. With A39U A59U the figure was 0.184; with A39U A59G, 0.101.

Take A39U A59C: the self-cleavage worked out at 0.172. With G42A U63A the figure was 0.174; with G40A U53A, 0.424; with A41U U53A, 1.28. With A39G C48U, the self-cleavage turned out to be 0.0998.

G40U A43C: the self-cleavage worked out at 0.165. For A41G C65G the value was 1.13; for G42A U58A, 0.139; for G42A U58G, 0.17. Take G42U A44G: the self-cleavage is 0.267. For A41U A59U the value was 0.241; for A39U U63G, 0.137; for A39U U63A, 0.114. With G42U G68U the figure was 0.14; with G40A A45G, 0.147; with G40U G42C, 0.0925. For G42C G57C the value was 0.0624; for G42C G57A, 0.1; for A41G C48A, 0.0982. For the variant A43C A45G, the self-cleavage worked out at 0.116.

For the variant A43C A45U, the self-cleavage turned out to be 0.203. For A41G C50U the value was 0.385; for A41G C50G, 0.325; for G42U A49U, 0.24. Turning to A39U G68A, the self-cleavage was found to be 0.199. For A39U G68C the value was 0.0955; for G42C U67C, 0.137; for A41U U63C, 0.248. With A41U U63G the figure was 0.223; with A41C U70C, 1.04; with A41U G54A, 1.03. Turning to A41C A44G, the self-cleavage turned out to be 0.241. For A41C A44U the value was 0.154.

For G40A A49C, the self-cleavage amounted to 0.0897.

Consider G42U C46G, for which the self-cleavage was found to be 0.156. With A41U A61U the figure was 0.399; with A41U A61G, 0.148; with G42A C46G, 0.106. With A39G G69A the figure was 0.112. With A39G G69C the figure was 0.101; with G40U A44G, 0.161.

For G42C A49U, the self-cleavage stood at 0.155.

As for G42C A49G, the self-cleavage is 0.244. With G40A G56A the figure was 0.117; with G40U A49U, 0.0847.

As for G40U A49C, the self-cleavage came out at 0.118.

G40C U53A: the self-cleavage came out at 0.235.

As for A39U A43U, the self-cleavage stood at 0.223. For A39U A43G the value was 0.103; for A41G U63A, 0.328; for G42U U67C, 0.131. For A41U A44U the value was 0.161; for G42A U53A, 0.184; for G40U U55A, 0.104. For A41C A59G the value was 0.152; for G42U U63C, 0.213; for A39U A47C, 0.168. Turning to A39G G56C, the self-cleavage is 0.117. With G40U G54C the figure was 0.155; with G40U G54A, 0.157; with G42A C48A, 0.0835. For A41G A45G the value was 0.225; for A41G A45U, 0.105. Take A41G A45C: the self-cleavage came to 0.101. With G40U G51U the figure was 0.179; with G40U G51A, 0.283; with A41C C46U, 0.0492. With A41C C46A the figure was 0.0559; with A39G C50G, 0.111; with A39U C48U, 0.206. For A39U C48G the value was 0.124.

As to A39U C48A, the self-cleavage was 0.135. On to A39U U60G, for which the self-cleavage was found to be 0.256. Regarding G42C G51A, the self-cleavage was 0.415. For G40U U58C the value was 0.278. For A39G C65A, the self-cleavage amounted to 0.442. For A41G A49C the value was 0.0938; for G42C U53G, 0.244; for G40C A59U, 0.198. As to G40U A59U, the self-cleavage came out at 0.14. For G40A U55G, the self-cleavage was determined as 0.121. For G40A U55C the value was 0.144; for G42U A47U, 0.12; for G42U A47C, 0.22.

Consider G42U A47G, for which the self-cleavage turned out to be 0.107.

For the variant A41G C46U, the self-cleavage is 0.0954. On to G42A C65U, for which the self-cleavage turned out to be 0.103. For G42A C65G the value was 0.132. With G42A C65A the figure was 0.0752; with G42U A64G, 0.154. On to G42U A64C, for which the self-cleavage turned out to be 0.18.

For G42U A64U, the self-cleavage was 0.186. For G42A C50A the value was 0.186. For G42U G69C the value was 0.136. With G42U G69U the figure was 0.136; with G42U G69A, 0.142; with A41U U70C, 1.42. For the variant A39G U53G, the self-cleavage worked out at 0.207. With A39G U53C the figure was 0.273; with G42C C50U, 0.0822. For G42C C50G the value was 0.0792.

Turning to A41C G69C, the self-cleavage is 0.287.

A41C G69U: the self-cleavage came out at 0.341. For A41C G69A the value was 0.524; for G40C U62C, 0.143; for G40C U62A, 0.116. For A39U U70A the value was 0.289; for A41G U70A, 0.97. With G40U A45G the figure was 0.132.

Regarding G40U A45C, the self-cleavage amounted to 0.103. With G40U A45U the figure was 0.219; with A41C U62C, 0.329; with G40U A41U, 0.221. For A39G U52A the value was 0.23; for G40A C46U, 0.147; for G40A C46G, 0.136.

Consider A43C A47G, for which the self-cleavage came to 0.0478. For A41G U55A the value was 0.228; for G40A C50U, 0.195.

Take G42A G57U: the self-cleavage stood at 0.0918. For A41U G56C the value was 0.149; for G42U A61G, 0.167. With G40A A59G the figure was 0.0897; with G40U U70A, 0.123. With G40C A47G the figure was 0.0685; with A41C G42C, 0.218.

A39U G40A: the self-cleavage stood at 0.134. For A39U G40U the value was 0.149; for A39U G40C, 0.149; for A39G U63G, 0.147. With A39G U63C the figure was 0.158. With A41G U60A the figure was 0.761; with G40C U58G, 0.199.

Take A43C A44U: the self-cleavage stood at 0.171. G40C G57A: the self-cleavage came out at 0.111.

Turning to A41C G56U, the self-cleavage stood at 0.0688. With A41C U55G the figure was 0.285; with A39U A71G, 0.221; with G40C G51A, 0.115.

As for A41U U52G, the self-cleavage was 1.07. With A39G C46G the figure was 0.113; with A39G C46U, 0.119. On to G42U C66U, for which the self-cleavage came to 0.232. For G42U C66G the value was 0.155; for G40A A47U, 0.154.

Source of the values: the RNAGym collection of RNA variant scans (doi:10.7554/elife.80360).
